# Measured values from article PMC11098746 (2024).
# No end group written: not given here.
# Biological target: Circumsporozoite protein (CSP) (Plasmodium falciparum (isolate 3D7), UniProt Q7K740)
# Assay: AVEXIS screen signal:noise (double-corrected)
# Circumsporozoite protein (CSP), sequence (Q7K740 19-374): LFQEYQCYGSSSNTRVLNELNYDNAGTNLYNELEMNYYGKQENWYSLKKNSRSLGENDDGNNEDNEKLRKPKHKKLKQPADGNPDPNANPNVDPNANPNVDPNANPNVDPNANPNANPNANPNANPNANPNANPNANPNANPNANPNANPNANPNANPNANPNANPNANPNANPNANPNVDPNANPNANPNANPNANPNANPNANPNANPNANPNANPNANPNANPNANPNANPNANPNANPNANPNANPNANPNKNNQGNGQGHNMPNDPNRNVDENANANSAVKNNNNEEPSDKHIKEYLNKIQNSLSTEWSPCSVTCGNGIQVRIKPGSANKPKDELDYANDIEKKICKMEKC
row,Binder,binding score
1,"ADP351 (protein, bait human Fc-tagged dimer) MARRRGSPGMGVHVGAALGALWFCLTGALEVQVPEDPVVALVGTDATLCCSFSPEPGFSLAQLNLIWQLTDTKQLVHSFAEGQDQGSAYANRTALFPDLLAQGNASLRLQRVRVADEGSFTCFVSIRDFGSAAVSLQVAAPYSKPSMTLEPNKDLRPGDTVTITCSSYQGYPEAEVFWQDGQGVPLTGNVTTSQMANEQGLFDVHSILRVVLGANGTYSCLVRNPVLQQDAHSSVTITPQRSPTGAVEVQVPEDPVVALVGTDATLRCSFSPEPGFSLAQLNLIWQLTDTKQLVHSFTEGRDQGSAYANRTALFPDLLAQGNASLRLQRVRVADEGSFTCFVSIRDFGSAAVSLQVAAPYSKPSMTLEPNKDLRPGDTVTITCSSYRGYPEAEVFWQDGQGVPLTGNVTTSQMANEQGLFDVHSVLRVVLGANGTYSCLVRNPVLQQDAHGSVTITGQPMTFPP",1.23
2,MTGLSMDGGGSPKGDVDPFYYDYETVRN (also: human Fc-tagged dimer) [ADP286],1.14
3,"ADP282 (protein, bait human Fc-tagged dimer) STWVTSEAYSSPSIVLSARGGDGSRIIFDDFREAYYWLRHNTPEDAKVMSWWDYGYQITAMANRTILVDNNTWNNTHISRVGQAMASTEEKAYEIMRELDVSYVLVIFGGLTGYSSDDINKFLWMVRIGGSTDTGKHIKENDYYTPTGEFRVDREGSPVLLNCLMYKMCYYRFGQVYTEAKRPPGFDRVRNAEIGNKDFELDVLEEAYTTEHWLVRIYKVKDLDNRGLSRT",0.691
4,"ADP375 (protein, bait human Fc-tagged dimer) SSKYAPDENCPDQNPRLRNWDPGQDSAKQVVIKEGDMLRLTSDATVHSIVIQDGGLLVFGDNKDGSRNITLRTHYILIQDGGALHIGAEKCRYKSKATITLYGKSDEGESMPTFGKKFIGVEAGGTLELHGARKASWTLLARTLNSSGLPFGSYTFEKDFSRGLNVRVIDQDTAKILESERFDTHEYRNESRRLQEFLRFQDPGRIVAIAVGDSAAKSLLQGTIQMIQERLGSELIQGLGYRQAWALVGVIDGGSTSCNESVRNYENHSSGGKALAQREFYTVDGQKFSVTAYSEWIEGVSLSGFRVEVVDGVKLNLLDDVSSWKPGDQIVVASTDYSMYQAEEFTLLPCSECSHFQVKVKETPQFLHMGEIIDGVDMRAEVGILTRNIVIQGEVEDSCYAENQCQFFDYDTFGGHIMIMKNFTSVHLSYVELKHMGQQQMGRYPVHFHLCGDVDYKGGYRHATFVDGLSIHHSFSRCITVHGTNGLLIKDTIGFDTLGHCFFLEDGIEQRNTLFHNLGLLTKPGTLLPTDRNNSMCTTMRDKVFGNYIPVPATDCMAVSTFWIAHPNNNLINNAAAGSQDAGIWYLFHKEPTGESSGLQLLAKPELTPLGIFYNNRVHSNFKAGLFIDKGVKTTNSSAADPREYLCLDNSARFRPHQDANPEKPRVAALIDRLIAFKNNDNGAWVRGGDIIVQNSAFADNGIGLTFASDGSFPSDEGSSQEVSESLFVGESRNYGFQGGQNKYVGTGGIDQKPRTLPRNRTFPIRGFQIYDGPIHLTRSTFKKYVPTPDRYSSAIGFLMKNSWQITPRNNISLVKFGPHVSLNVFFGKPGPWFEDCEMDGDKNSIFHDIDGSVTGYKDAYVGRMDNYLIRHPSCVNVSKWNAVICSGTYAQVYVQTWSTQNLSMTITRDEYPSNPMVLRGINQKAAFPQYQPVVMLEKGYTIHWNGPAPRTTFLYLVNFNKNDWIRVGLCYPSNTSFQVTFGYLQRQNGSLSKIEEYEPVHSLEELQRKQSERKFYFDSSTGLLFLYLKAKSHRHGHSYCSSQGCERVKIQAATDSKDISNCMAKAYPQYYRKPSVVKRMPAMLTGLCQGCGTRQVVFTSDPHKSYLPVQFQSPDKAETQRGDPSVISVNGTDFTFRSAGVLLLVVDPCSVPFRLTEKTVFPLADVSRIEEYLKTGIPPRSIVLLSTRGEIKQLNISHLLVPLGLAKPAHLYDKGSTIFLGFSGNFKPSWTKLFTSPAGQGLGVLEQFIPLQLDEYGCPRATTVRRRDLELLKQASKAH",0.71
5,"ADP281 (protein, also: human Fc-tagged dimer) SIYEMVVDVLFLCFAIDTKYNDGSPGREFYMDKVLMEFVENSRKAMKEAGKGGVADSRELKPMASG",0.848
6,"ADP322 (protein, bait human Fc-tagged dimer) MAALGPALLQALWAGWVLTLQPLPPTAFTPNGTYLQHLARDPTSGTLYLGATNFLFQLSPGLQLEATVSTGPVLDSRDCLPPVMPDECPQAQPTNNPNQLLLVSPGALVVCGSVHQGVCEQRRLGQLEQLLLRPERPGDTQYVAANDPAVSTVGLVAQGLAGEPLLFVGRGYTSRGVGGGIPPITTRALWPPDPQAAFSYEETAKLAVGRLSEYSHHFVSAFARGASAYFLFLRRDLQAQSRAFRAYVSRVCLRDQHYYSYVELPLACEGGRYGLIQAAAVATSREVAHGEVLFAAFSSAAPPTVGRPPSAAAGASGASALCAFPLDEVDRLANRTRDACYTREGRAEDGTEVAYIEYDVNSDCAQLPVDTLDAYPCGSDHTPSPMASRVPLEATPILEWPGIQLTAVAVTMEDGHTIAFLGDSQGQLHRVYLGPGSDGHPYSTQSIQQGSAVSRDLTFDGTFEHLYVMTQSTLLKVPVASCAQHLDCASCLAHRDPYCGWCVLLGRCSRRSECSRGQGPEQWLWSFQPELGCLQVAAMSPANISREETREVFLSVPDLPPLWPGESYSCHFGEHQSPALLTGSGVMCPSPDPSEAPVLPRGADYVSVSVELRFGAVVIAKTSLSFYDCVAVTELRPSAQCQACVSSRWGCNWCVWQHLCTHKASCDAGPMVASHQSPLVSPDPPARGGPSPSPPTAPKALATPAPDTLPVEPGAPSTATASDISPGASPSLLSPWGPWAGSGSISSPGSTGSPLHEEPSPPSPQNGPGTAVPAPTDFRPSATPEDLLASPLSPSEVAAVPPADPGPEALHPTVPLDLPPATVPATTFPGAMGSVKPALDWLTREGGELPEADEWTGGDAPAFSTSTLLSGDGDSAELEGPPAPLILPSSLDYQYDTPGLWELEEATLGASSCPCVESVQGSTLMPVHVEREIRLLGRNLHLFQDGPGDNECVMELEGLEVVVEARVECEPPPDTQCHVTCQQHQLSYEALQPELRVGLFLRRAGRLRVDSAEGLHVVLYDCSVGHGDCSRCQTAMPQYGCVWCEGERPRCVTREACGEAEAVATQCPAPLIHSVEPLTGPVDGGTRVTIRGSNLGQHVQDVLGMVTVAGVPCAVDAQEYEVSSSLVCITGASGEEVAGATAVEVPGRGRGVSEHDFAYQDPKVHSIFPARGPRAGGTRLTLNGSKLLTGRLEDIRVVVGDQPCHLLPEQQSEQLRCETSPRPTPATLPVAVWFGATERRLQRGQFKYTLDPNITSAGPTKSFLSGGREICVRGQNLDVVQTPRIRVTVVSRMLQPSQGLGRRRRVVPETACSLGPSCSSQQFEEPCHVNSSQLITCRTPALPGLPEDPWVRVEFILDNLVFDFATLNPTPFSYEADPTLQPLNPEDPTMPFRHKPGSVFSVEGENLDLAMSKEEVVAMIGDGPCVVKTLTRHHLYCEPPVEQPLPRHHALREAPDSLPEFTVQMGNLRFSLGHVQYDGESPGAFPVAAQ",2.59
7,"ADP137 (protein, bait human Fc-tagged dimer) MAVVGNPRSWSCQWLPILILLLGTGHGPGVEGVTHYKAGDPVILYVNKVGPYHNPQETYHYYQLPVCCPEKIRHKSLSLGEVLDGDRMAESLYEIRFRENVEKRILCHMQLSSAQVEQLRQAIEELYYFEFVVDDLPIRGFVGYMEESGFLPHSHKIGLWTHLDFHLEFHGDRIIFANVSVRDVKPHSLDGLRPDEFLGLTHTYSVRWSETSVERRSDRRRGDDGGFFPRTLEIHWLS",0.831
8,"ADP304 (protein, bait human Fc-tagged dimer) MASGWWLWPLVAVCTADFFRDEAERIMRDSPVIDGHNDLPWQLLDMFNNRLQDERANLTTLAGTHTNIPKLRAGFVGGQFWSVYTPCDTQNKDAVRRTLEQMDVVHRMCRMYPETFLYVTSSAGIRQAFREGKVASLIGVEGGHSIDSSLGVLRALYQLGMRYLTLTHSCNTPWADNWLVDTGDSEPQSQGLSPFGQRVVKELNRLGVLIDLAHVSVATMKATLQLSRAPVIFSHSSAYSVCASRRNVPDDVLRLVKQTDSLVMVNFYNNYISCTNKANLSQVADHLDHIKEVAGARAVGFGGDFDGVPRVPEGLEDVSKYPDLIAELLRRNWTEAEVKGALADNLLRVFEAVEQASNLTQAPEEEPIPLDQLGGSCRTHYGYSS",0.718
9,"ADP344 (protein, bait human Fc-tagged dimer) MAWSFFRVVAMLFIFLVVVEVNSEFRIQVRDYNTKNGTIKWHSIRRQKREWIKFAAACREGEDNSKRNPIAKIHSDCAANQQVTYRISGVGIDQPPYGIFVINQKTGEINITSIVDREVTPFFIIYCRALNSMGQDLERPLELRVRVLDINDNPPVFSMATFAGQIEENSNANTLVMILNATDADEPNNLNSKIAFKIIRQEPSDSPMFIINRNTGEIRTMNNFLDREQYGQYALAVRGSDRDGGADGMSAECECNIKILDVNDNIPYMEQSSYTIEIQENTLNSNLLEIRVIDLDEEFSANWMAVIFFISGNEGNWFEIEMNERTNVGILKVVKPLDYEAMQSLQLSIGVRNKAEFHHSIMSQYKLKASAISVTVLNVIEGPVFRPGSKTYVVTGNMGSNDKVGDFVATDLDTGRPSTTVRYVMGNNPADLLAVDSRTGKLTLKNKVTKEQYNMLGGKYQGTILSIDDNLQRTCTGTININIQSFGNDDRTNTEPNTKITTNTGRQESTSSTNYDTSTTSTDSSQVYSSEPGNGAKDLLSDNVHFGPAG",1.01
10,"ADP264 (protein, bait human Fc-tagged dimer) GRFSLFGLGGEPGGGAAGPAAAADGGTVDLREMLAVSVLAAVRGGDEVRRVRESNVLHEKSKGKTREGAEDKMTSGDVLSNRKMFYLLKTAFPSVQINTEEHVDAADQEVILWDHKIPEDILKEVTTPKEVPAESVTVWIDPLDATQEYTEDLRKYVTTMVCVAVNGKPMLGVIHKPFSEYTAWAMVDGGSNVKARSSYNEKTPRIVVSRSHSGMVKQVALQTFGNQTTIIPAGGAGYKVLALLDVPDKSQEKADLYIHVTYIKKWDICAGNAILKALGGHMTTLSGEEISYTGSDGIEGGLLASIRMNHQALVRKLPDLEKTGHK",0.964
11,"ADP345 (protein, bait human Fc-tagged dimer) MALLAGGLSRGLGSHPAAAGRDAVVFVWLLLSTWCTAPARAIQVTVSNPYHVVILFQPVTLPCTYQMTSTPTQPIVIWKYKSFCRDRIADAFSPASVDNQLNAQLAAGNPGYNPYVECQDSVRTVRVVATKQGNAVTLGDYYQGRRITITGNADLTFDQTAWGDSGVYYCSVVSAQDLQGNNEAYAELIVLGRTSGVAELLPGFQAGP",0.842
12,"ADP388 (protein, bait human Fc-tagged dimer) SEGHGGAQLQAELRSLKEAFSNFSSSTLTEVQAISTHGGSVGDKITSLGAKLEKQQQDLKADHDALLFHLKHFPVDLRFVACQMELLHSNGSQRTCCPVNWVEHQGSCYWFSHSGKAWAEAEKYCQLENAHLVVINSWEEQKFIVQHTNPFNTWIGLTDSDGSWKWVDGTDYRHNYKNWAVTQPDNWHGHELGGSEDCVEVQPDGRWNDDFCLQVYRWVCEKRRNATGEVA",0.484
